Assay [1] has as its target T1, human MCAM (melanoma cell adhesion molecule) expressed on transfected CHO cells (human, UniProt P43121 24-646).
T1 construct: also called hMCAM; CD146
T1 chain: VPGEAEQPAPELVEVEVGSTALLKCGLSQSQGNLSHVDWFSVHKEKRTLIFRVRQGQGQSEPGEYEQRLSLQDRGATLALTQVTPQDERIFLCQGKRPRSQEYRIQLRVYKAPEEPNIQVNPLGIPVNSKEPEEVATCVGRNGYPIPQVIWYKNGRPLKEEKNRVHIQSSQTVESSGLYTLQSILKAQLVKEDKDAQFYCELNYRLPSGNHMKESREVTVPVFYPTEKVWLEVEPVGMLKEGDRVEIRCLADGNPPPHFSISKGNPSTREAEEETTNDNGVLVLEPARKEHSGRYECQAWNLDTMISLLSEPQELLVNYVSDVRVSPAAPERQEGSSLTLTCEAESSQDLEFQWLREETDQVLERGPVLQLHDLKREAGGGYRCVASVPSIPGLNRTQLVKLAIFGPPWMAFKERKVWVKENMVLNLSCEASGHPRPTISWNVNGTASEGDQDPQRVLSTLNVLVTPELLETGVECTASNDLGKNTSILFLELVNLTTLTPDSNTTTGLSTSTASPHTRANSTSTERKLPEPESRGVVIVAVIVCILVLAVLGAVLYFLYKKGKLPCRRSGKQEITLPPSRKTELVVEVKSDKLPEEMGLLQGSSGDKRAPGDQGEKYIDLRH
Briefly: laminin/FACS on hMCAM CHO cells, competitor laminin 411; Expt#1; vs rodent 2107. Put shortly:
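After a 30-45 minute incubation, cells were washed and bound laminin was detected with AF650-conjugated anti-laminin antibody. Laminin binding signal was measured by flow cytometry.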

The target in assay [2] is T1, human MCAM (melanoma cell adhesion …). Briefly: laminin/FACS on hMCAM CHO cells, competitor laminin 411; Expt#2; reference row with 1.0 is chimeric 2107. The protocol:
(§1) Following incubation for 30-45 minutes, the cells were washed and anti-laminin conjugated to AF650 (NovusBio) was added to detect the bound laminin. The cells were run on a flow cytometer to measure the laminin binding signal.

In assay [3] the target is T2, recombinant hMCAM-His (human, UniProt P43121 24-559).
T2 construct: not shown: His tag
T2 chain: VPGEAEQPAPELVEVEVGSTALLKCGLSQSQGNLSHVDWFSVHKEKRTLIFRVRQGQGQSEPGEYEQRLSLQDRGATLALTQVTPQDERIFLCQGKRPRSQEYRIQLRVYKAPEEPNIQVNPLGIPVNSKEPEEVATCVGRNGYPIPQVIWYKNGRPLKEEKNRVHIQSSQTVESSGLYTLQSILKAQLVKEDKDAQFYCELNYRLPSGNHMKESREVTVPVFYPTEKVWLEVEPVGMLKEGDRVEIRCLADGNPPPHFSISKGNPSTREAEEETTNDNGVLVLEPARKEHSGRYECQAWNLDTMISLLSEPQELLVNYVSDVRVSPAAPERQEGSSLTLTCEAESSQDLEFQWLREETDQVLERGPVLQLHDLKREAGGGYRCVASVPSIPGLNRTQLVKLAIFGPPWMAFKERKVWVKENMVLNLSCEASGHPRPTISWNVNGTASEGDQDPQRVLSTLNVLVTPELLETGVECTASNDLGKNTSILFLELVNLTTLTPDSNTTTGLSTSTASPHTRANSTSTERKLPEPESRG
The assay can be described thus: ForteBio Octet Red, hMCAM-His analyte; Forte column 1; vs rodent 2107. Put shortly:
(§2)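 Humanized antibodies were captured on anti-human Fc sensors, then exposed to several concentrations of hMCAMHis analyte; affinity was derived by a 1:1 fitting model.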
On the technique in general: In BLI a coated tip is dipped into the sample, and binding shifts an interference pattern.

Assay [4] addresses T2, recombinant hMCAM-His. Briefly: ForteBio Octet Red, hMCAM-His analyte; Expt. #2; vs rodent 2107. The protocol:
(§3) The affinities were measured using the ForteBio Octet Red. Anti-human Fc sensors were used to capture the humanized antibodies, and several concentrations of hMCAMHis analyte were used to determine the affinity using a 1:1 fitting model.

For assay [5], the target named is T2, recombinant hMCAM-His. Briefly: competitive ELISA on hMCAM-His, competitor biotinylated rodent or chimeric 2107; vs rodent 2107. Put shortly:
(§4)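 Plates coated with recombinant hMCAM-His and casein-blocked; biotinylated rodent or chimeric antibody at subsaturating level competed by 3× serial concentrations of unlabeled humanized, rodent or chimeric antibody. Bound biotinylated antibody detected with streptavidin-HRP/TMB at OD450; competitor IC50 fitted.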

The target in assay [6] is T2, recombinant hMCAM-His. Briefly: competitive ELISA on hMCAM-His, competitor biotinylated rodent or chimeric 2107; Expt. #1; vs rodent 2107. Put shortly:
as §4
Background: In an ELISA, binding on a coated surface is turned into a signal by an enzyme label.

The target of assay [7] is T2, recombinant hMCAM-His. The assay can be described thus: summary of ForteBio and competitive ELISA on hMCAM-His; vs rodent 2107. As for the experimental part:
(§5) ELISA plates were coated with recombinant hMCAM-His, and blocked with casein buffer to prevent non-specific binding. Biotinylated rodent or chimeric antibody was added at a subsaturating concentration, in the presence or absence of 3× increasing concentrations of unlabeled competitor (humanized antibody, rodent, or chimeric). After washing to remove unbound antibody, streptavidin HRP was added to allow detection of the biotinylated antibody. The ELISA was developed with TMB substrate and the OD450 was measured. The IC50 of the unlabeled competitor was determined using the GraphPad Prism5 software.
as §3

The target in assay [8] is T2, recombinant hMCAM-His. Briefly: competitive ELISA on hMCAM-His, competitor biotinylated rodent or chimeric 2107; Expt. #2; vs rodent 2107. The protocol: as §5
Assay [9] concerns the target T1, human MCAM (melanoma cell adhesion …). The assay can be described thus: summary of laminin blocking assay on hMCAM CHO cells, competitor laminin 411; vs rodent 2107. The protocol:
as §1

Assay [10] concerns the target T2, recombinant hMCAM-His. The assay can be described thus: ForteBio Octet Red, hMCAM-His analyte; Expt. #1; vs rodent 2107. Put shortly:
as §2

For assay [11], the target named is T2, recombinant hMCAM-His. Briefly: ForteBio Octet Red, hMCAM-His analyte; Forte column 2; vs rodent 2107. Put shortly:
as §2

Positions count from the first letter of the chain named.

B1: h2107_VH1 + h2107_VL2 (antibody, human IgG1, V domains shown)
VH: QVTLKESGPVLVKPTETLTLTCTVSGFSLTSNGVSWVRQPPGKALEWIAAISSGGSTYYNSAFKSRLTISRDTSKSQVVLTMTNMDPVDTATYYCARHRPFYFDYWGQGTLVTVSS
VL: DIQMTQSPSSLSASVGDRVTITCKGSQNIYKSLAWFQLKPGKVPKLLIYDANSLQTGIPSRFSGSGSGTDFTLTISSLQPEDVATYYCQQYYSGYTFGGGTKVEIK
notes: also called VH1VL2
For B1, the entries for the “fold over rodent (blocking, laminin/FACS)” value in assay [1] and in assay [2] were 1.9 fold and 1.4 fold, respectively. Further, the “fold over rodent (Forte affinity)” value with recombinant hMCAM-His [3] is 3 fold; in the assay with recombinant hMCAM-His [4], 3.4 fold; in the assay with recombinant hMCAM-His [10], 2.37 fold; with recombinant hMCAM-His [11] it was 2.8 fold. Moreover, the “fold over rodent (competitive ELISA)” value in the assay with recombinant hMCAM-His [5] came out at 1.4 fold; in the assay with recombinant hMCAM-His [6], 1.29 fold; with recombinant hMCAM-His [8] it was 1.32 fold. The “fold reduction in affinity compared to the rodent” value in the assay with recombinant hMCAM-His [7] is less than 3 fold. Also, the “fold reduction in potency compared to the rodent” value in [9] is less than 3 fold.

B2: h2107_VH2 + h2107_VL2 (antibody, human IgG1, V domains shown)
VH: B1 VH with T68S
VL: B1 VL
notes: also called h2107VH2VL2; VH2VL2
Regarding B2, the “fold over rodent (blocking, laminin/FACS)” value in assay [1] was found to be 1.4 fold; in assay [2], 1.5 fold. Moreover, the “fold over rodent (Forte affinity)” value with recombinant hMCAM-His [3] amounted to 2.7 fold; in the assay with recombinant hMCAM-His [4], 3.58 fold; with recombinant hMCAM-His [10] it was 2.54 fold; with recombinant hMCAM-His [11] it was 2.9 fold. Also, the figures for the “fold over rodent (competitive ELISA)” value in the assay with recombinant hMCAM-His [5], in the assay with recombinant hMCAM-His [6] and with recombinant hMCAM-His [8] were 1.3 fold, 1.32 fold and 1.48 fold, respectively. Further, the “fold reduction in affinity compared to the rodent” value with recombinant hMCAM-His [7] was less than 3 fold. In addition, the “fold reduction in potency compared to the rodent” value in [9] was less than 3 fold.

For the origin of these results see patent US20150239980A1 (NEOTOPE BOSCIENCES, published 2015).
